Measured values as given in US20220074941A1, “HSP90 COMBINATION THERAPY” (Sloan-Kettering Institute for Cancer Research, priority 2011, published 2022).

Experiments:
[1] = test system: Hsp90 complexes in K562 cell extract; assay: Nano-LC-MS/MS of PU-beads pull-downs; assay type: binding; settings: protein identified in PU-beads pull-down of K562 cell extract, QSTAR-Elite QTof MS
Protocol: Protein cargo isolated from cell lysate with PU-beads or control-beads was subjected to proteomic analysis by nano liquid chromatography coupled to tandem mass spectrometry (nano LC-MS/MS). Initial protein identification was performed using the Mascot search engine, and was further evaluated using Scaffold Proteome Software (Tables 5a-d).
(§1) Lysates prepared as mentioned above were first pre-cleaned by incubation with control beads overnight at 4° C. […] Beads were washed with lysis buffer, proteins eluted by boiling in 2% SDS, separated on a denaturing gel and Coomassie stained according to manufacturer's procedure (Biorad). […] Analyses of the batch purified pools were done using a QSTAR-Elite hybrid quadrupole time-of-flight mass spectrometer (QTof MS) (AB/MDS Sciex), equipped with a nano spray ion source. Peptide mixtures (in 20 μL) are loaded onto a trapping guard column (0.3×5-mm PepMap C18 100 cartridge from LC Packings) using an Eksigent nano MDLC system (Eksigent Technologies, Inc) at a flow rate of 20 μL/min. […] Electrospray ionization (ESI) needle voltage was set at about 1800 V. The mass analyzer is operated in automatic, data-dependent MS/MS acquisition mode, with the threshold set to 10 counts per second of doubly or triply charged precursor ions selected for fragmentation scans. Survey scans of 0.25 sec are recorded from 400 to 1800 amu; up to 3 MS/MS scans are then collected sequentially for the selected precursor ions, recording from 100 to 1800 amu. The collision energy is automatically adjusted in accordance with the m/z value of the precursor ions selected for MS/MS. Selected precursor ions are excluded from repeated selection for 60 sec after the end of the corresponding fragmentation duty cycle. […] One missed tryptic cleavage site was allowed, precursor ion mass tolerance=0.4 Da fragment ion mass tolerance=0.4 Da, protein modifications were allowed for Met-oxide, Cys-acrylamide and N-terminal acetylation. MudPit scoring was typically applied with ‘require bold red’ activated, and using significance threshold score p<0.05. Unique peptide counts (or ‘spectral counts’) and percent sequence coverages for all identified proteins were exported to Scaffold Proteome Software (version 2_06_01, www.proteomesoftware.com) for further bioinformatic analysis (Table 5a). Using output from Mascot, Scaffold validates, organizes, and interprets mass spectrometry data, allowing more easily to manage large amounts of data, to compare samples, and to search for protein modifications.

[2] = test system: Hsp90 complexes in Mia-PaCa-2 cell extract; assay: Nano-LC-MS/MS of PU-beads pull-downs; assay type: binding, human; settings: protein identified in PU-beads pull-down of Mia-PaCa-2 cell extract; QSTAR-Elite QTof MS
Protocol: as §1

Molecule	Number of Assigned Spectra, K562 Prep 1 [1]	Number of Assigned Spectra, K562 Prep 2 [1]	Number of Assigned Spectra, Mia-Paca 2 [2]
SUPV3L1 (protein, UniProt Q8IYB8 23-786, looked up) ATP-dependent RNA helicase …: AICSALRPHFGPFPGVLGQVSVLATASSSASGGSKIPNTSLFVPLTVKPQGPSADGDVGAELTRPLDKNEVKKVLDKFYKRKEIQKLGADYGLDARLFHQAFISFRNYIMQSHSLDVDIHIVLNDICFGAAHADDLFPFFLRHAKQIFPVLDCKDDLRKISDLRIPPNWYPDARAMQRKIIFHSGPTNSGKTYHAIQKYFSAKSGVYCGPLKLLAHEIFEKSNAAGVPCDLVTGEERVTVQPNGKQASHVSCTVEMCSVTTPYEVAVIDEIQMIRDPARGWAWTRALLGLCAEEVHLCGEPAAIDLVMELMYTTGEEVEVRDYKRLTPISVLDHALESLDNLRPGDCIVCFSKNDIYSVSRQIEIRGLESAVIYGSLPPGTKLAQAKKFNDPNDPCKILVATDAIGMGLNLSIRRIIFYSLIKPSINEKGERELEPITTSQALQIAGRAGRFSSRFKEGEVTTMNHEDLSLLKEILKRPVDPIRAAGLHPTAEQIEMFAYHLPDATLSNLIDIFVDFSQVDGQYFVCNMDDFKFSAELIQHIPLSLRVRYVFCTAPINKKQPFVCSSLLQFARQYSRNEPLTFAWLRRYIKWPLLPPKNIKDLMDLEAVHDVLDLYLWLSYRFMDMFPDASLIRDLQKELDGIIQDGVHNITKLIKMSETHKLLNLEGFPSGSQSRLSGTLKSQARRTRGTKALGSKATEPPSPDAGELSLASRLVQQGLLTPDMLKQLEKEWMTQQTEHNKEKTESGTHPKGTRRKKKEPDSD	8	3	0
APRT (protein, UniProt P07741 2-180, looked up) Adenine …: ADSELQLVEQRIRSFPDFPTPGVVFRDISPVLKDPASFRAAIGLLARHLKATHGGRIDYIAGLDSRGFLFGPSLAQELGLGCVLIRKRGKLPGPTLWASYSLEYGKAELEIQKDALEPGQRVVVVDDLLATGGTMNAACELLGRLQAEVLECVSLVELTSLKGREKLAPVPFFSLLQYE	0	0	6
FAM115A (protein, UniProt Q9Y4C2 1-921, looked up) TRPM8 channel-associated …: MATPSAAFEALMNGVTSWDVPEDAVPCELLLIGEASFPVMVNDMGQVLIAASSYGRGRLVVVSHEDYLVEAQLTPFLLNAVGWLCSSPGAPIGVHPSLAPLAKILEGSGVDAKVEPEVKDSLGVYCIDAYNETMTEKLVKFMKCGGGLLIGGQAWDWANQGEDERVLFTFPGNLVTSVAGIYFTDNKGDTSFFKVSKKMPKIPVLVSCEDDLSDDREELLHGISELDISNSDCFPSQLLVHGALAFPLGLDSYHGCVIAAARYGRGRVVVTGHKVLFTVGKLGPFLLNAVRWLDGGRRGKVVVQTELRTLSGLLAVGGIDTSIEPNLTSDASVYCFEPVSEVGVKELQEFVAEGGGLFVGAQAWWWAFKNPGVSPLARFPGNLLLNPFGISITSQSLNPGPFRTPKAGIRTYHFRSTLAEFQVIMGRKRGNVEKGWLAKLGPDGAAFLQIPAEEIPAYMSVHRLLRKLLSRYRLPVATRENPVINDCCRGAMLSLATGLAHSGSDLSLLVPEIEDMYSSPYLRPSESPITVEVNCTNPGTRYCWMSTGLYIPGRQIIEVSLPEAAASADLKIQIGCHTDDLTRASKLFRGPLVINRCCLDKPTKSITCLWGGLLYIIVPQNSKLGSVPVTVKGAVHAPYYKLGETTLEEWKRRIQENPGPWGELATDNIILTVPTANLRTLENPEPLLRLWDEVMQAVARLGAEPFPLRLPQRIVADVQISVGWMHAGYPIMCHLESVQELINEKLIRTKGLWGPVHELGRNQQRQEWEFPPHTTEATCNLWCVYVHETVLGIPRSRANIALWPPVREKRVRIYLSKGPNVKNWNAWTALETYLQLQEAFGWEPFIRLFTEYRNQTNLPTENVDKMNLWVKMFSHQVQKNLAPFFEAWAWPIQKEVATSLAYLPEWKENIMKLYLLTQMPH	9	1	0
FHOD1 (protein, UniProt Q9Y613 2-1164, looked up) FH1/FH2 domain-containing …: AGGEDRGDGEPVSVVTVRVQYLEDTDPFACANFPEPRRAPTCSLDGALPLGAQIPAVHRLLGAPLKLEDCALQVSPSGYYLDTELSLEEQREMLEGFYEEISKGRKPTLILRTQLSVRVNAILEKLYSSSGPELRRSLFSLKQIFQEDKDLVPEFVHSEGLSCLIRVGAAADHNYQSYILRALGQLMLFVDGMLGVVAHSDTIQWLYTLCASLSRLVVKTALKLLLVFVEYSENNAPLFIRAVNSVASTTGAPPWANLVSILEEKNGADPELLVYTVTLINKTLAALPDQDSFYDVTDALEQQGMEALVQRHLGTAGTDVDLRTQLVLYENALKLEDGDIEEAPGAGGRRERRKPSSEEGKRSRRSLEGGGCPARAPEPGPTGPASPVGPTSSTGPALLTGPASSPVGPPSGLQASVNLFPTISVAPSADTSSERSIYKARFLENVAAAETEKQVALAQGRAETLAGAMPNEAGGHPDARQLWDSPETAPAARTPQSPAPCVLLRAQRSLAPEPKEPLIPASPKAEPIWELPTRAPRLSIGDLDFSDLGEDEDQDMLNVESVEAGKDIPAPSPPLPLLSGVPPPPPLPPPPPIKGPFPPPPPLPLAAPLPHSVPDSSALPTKRKTVKLFWRELKLAGGHGVSASRFGPCATLWASLDPVSVDTARLEHLFESRAKEVLPSKKAGEGRRTMTTVLDPKRSNAINIGLTTLPPVHVIKAALLNFDEFAVSKDGIEKLLTMMPTEEERQKIEEAQLANPDIPLGPAENFLMTLASIGGLAARLQLWAFKLDYDSMEREIAEPLFDLKVGMEQLVQNATFRCILATLLAVGNFLNGSQSSGFELSYLEKVSEVKDTVRRQSLLHHLCSLVLQTRPESSDLYSEIPALTRCAKVDFEQLTENLGQLERRSRAAEESLRSLAKHELAPALRARLTHFLDQCARRVAMLRIVHRRVCNRFHAFLLYLGYTPQAAREVRIMQFCHTLREFALEYRTCRERVLQQQQKQATYRERNKTRGRMITETEKFSGVAGEAPSNPSVPVAVSSGPGRGDADSHASMKSLLTSRPEDTTHNRRSRGMVQSSSPIMPTVGPSTASPEEPPGSSLPSDTSDEIMDLLVQSVTKSSPRALAARERKRSRGNRKSLRRTLKSGLGDDLVQALGLSKGPGLEV	5	2	0
FIP1L1 (protein, UniProt Q6UN15 1-594, looked up) Pre-mRNA 3'-end-processing …: MSAGEVERLVSELSGGTGGDEEEEWLYGGPWDVHVHSDLAKDLDENEVERPEEENASANPPSGIEDETAENGVPKPKVTETEDDSDSDSDDDEDDVHVTIGDIKTGAPQYGSYGTAPVNLNIKTGGRVYGTTGTKVKGVDLDAPGSINGVPLLEVDLDSFEDKPWRKPGADLSDYFNYGFNEDTWKAYCEKQKRIRMGLEVIPVTSTTNKITAEDCTMEVTPGAEIQDGRFNLFKVQQGRTGNSEKETALPSTKAEFTSPPSLFKTGLPPSRNSTSSQSQTSTASRKANSSVGKWQDRYGRAESPDLRRLPGAIDVIGQTITISRVEGRRRANENSNIQVLSERSATEVDNNFSKPPPFFPPGAPPTHLPPPPFLPPPPTVSTAPPLIPPPGFPPPPGAPPPSLIPTIESGHSSGYDSRSARAFPYGNVAFPHLPGSAPSWPSLVDTSKQWDYYARREKDRDRERDRDRERDRDRDRERERTRERERERDHSPTPSVFNSDEERYRYREYAERGYERHRASREKEERHRERRHREKEETRHKSSRSNSRRRHESEEGDSHRRHKHKKSKRSKEGKEAGSEPAPEQESTEATPAE	6	3	0
LTV1 (protein, UniProt Q96GA3 1-475, looked up) Protein LTV1 homolog: MPHRKKKPFIEKKKAVSFHLVHRSQRDPLAADESAPQRVLLPTQKIDNEERRAEQRKYGVFFDDDYDYLQHLKEPSGPSELIPSSTFSAHNRREEKEETLVIPSTGIKLPSSVFASEFEEDVGLLNKAAPVSGPRLDFDPDIVAALDDDFDFDDPDNLLEDDFILQANKATGEEEGMDIQKSENEDDSEWEDVDDEKGDSNDDYDSAGLLSDEDCMSVPGKTHRAIADHLFWSEETKSRFTEYSMTSSVMRRNEQLTLHDERFEKFYEQYDDDEIGALDNAELEGSIQVDSNRLQEVLNDYYKEKAENCVKLNTLEPLEDQDLPMNELDESEEEEMITVVLEEAKEKWDCESICSTYSNLYNHPQLIKYQPKPKQIRISSKTGIPLNVLPKKGLTAKQTERIQMINGSDLPKVSTQPRSKNESKEDKRARKQAIKEERKERRVEKKANKLAFKLEKRRQEKELLNLKKNVEGLKL	5	6	0
CPNE3 (protein, UniProt O75131 1-537, looked up) Copine-3: MAAQCVTKVALNVSCANLLDKDIGSKSDPLCVLFLNTSGQQWYEVERTERIKNCLNPQFSKTFIIDYYFEVVQKLKFGVYDIDNKTIELSDDDFLGECECTLGQIVSSKKLTRPLVMKTGRPAGKGSITISAEEIKDNRVVLFEMEARKLDNKDLFGKSDPYLEFHKQTSDGNWLMVHRTEVVKNNLNPVWRPFKISLNSLCYGDMDKTIKVECYDYDNDGSHDLIGTFQTTMTKLKEASRSSPVEFECINEKKRQKKKSYKNSGVISVKQCEITVECTFLDYIMGGCQLNFTVGVDFTGSNGDPRSPDSLHYISPNGVNEYLTALWSVGLVIQDYDADKMFPAFGFGAQIPPQWQVSHEFPMNFNPSNPYCNGIQGIVEAYRSCLPQIKLYGPTNFSPIINHVARFAAAATQQQTASQYFVLLIITDGVITDLDETRQAIVNASRLPMSIIIVGVGGADFSAMEFLDGDGGSLRSPLGEVAIRDIVQFVPFRQFQNAPKEALAQCVLAEIPQQVVGYFNTYKLLPPKNPATKQQKQ	4	5	0
